Common to all, as to experiment: cell_activity
Conditions in all cases: A. thaliana GUS recombination

The target in series [1] is T1, NLS-I-SceI C term mod #1-AlcR(1-60) (VC-SAH128-3, SAH126-1) (Saccharomyces cerevisiae / Aspergillus nidulans) (UniProt P03882).
T1 sequence: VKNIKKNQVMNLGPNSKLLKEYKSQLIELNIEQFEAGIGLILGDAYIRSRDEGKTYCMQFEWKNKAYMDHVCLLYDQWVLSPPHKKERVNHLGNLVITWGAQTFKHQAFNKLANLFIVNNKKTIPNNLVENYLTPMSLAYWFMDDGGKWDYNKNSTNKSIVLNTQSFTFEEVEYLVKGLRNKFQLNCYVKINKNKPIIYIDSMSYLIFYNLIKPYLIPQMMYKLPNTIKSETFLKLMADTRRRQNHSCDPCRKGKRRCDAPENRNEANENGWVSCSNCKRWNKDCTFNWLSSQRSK

In series [2] the target is T2, NLS-I-SceI C term mod #2-AlcR(1-60) (VC-SAH129-1, SAH127-1) (Saccharomyces cerevisiae / Aspergillus nidulans) (UniProt P03882).
T2 sequence: T1 sequence with T227A, K229A, S230N, E231Q, T232A

For series [3], the target named is T3, NLS-I-SceI-AlcR(1-60) (VC-SAH48-8, VC-SAH91-1) (Saccharomyces cerevisiae / Aspergillus nidulans) (UniProt P03882).
T3 sequence: T1 sequence with K229S

Substitutions are numbered along the chain they refer to.

Take “AGCGGCCGCCTAGGGATCCGACAGGTTACGGGGCGGCGACCTCGCGGGTTTTCGCTATTTATGAAAATTTTCCGGTTTAAGGCGTTTCCGTTCTTCTTCGTCATAACTTAATGTTTTTATTTAAAATACCCTCTGAAAAGAAAGGAAACGACAGGTGCATTACCCTGTTATCCCTAGCGGATCCGCACGTTATCCCTAGCGGATCCGCACGTTATCCCTAT (double strand) [combined target site VC-SAH55-22 (#55)]”: the figures for the activity (% blue plants) in series [1], in series [2] and in series [3] were 100, 76 and 49, respectively.

The record behind these values is patent US20120284877.
